Source: the RNAGym collection of RNA variant scans (doi:10.1073/pnas.2313332121)
Fewer inactive variants are shown than the library holds.

B1: TPR 5TU (parent)
chain: GGAUCUUCUCGAUCUAACAAAAAAGACAAAUCUGCCACAAAGCUUGAGAGCAUCUUCGGAUGCAGAGGCGGCAGCCUUCGGUGGCGCGAUAGCGCCAACGUUCUCAACUAUGACACGCAAAACGCGUGCUCCGUUGAAUGGAGUUUAUCAUG

Variants of: B1
Test: polymerase ribozyme fitness, log enrichment relative to wild type (log ratio); higher = more active; in vitro selection for triplet polymerase activity
How it was run: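 A heterodimeric triplet polymerase ribozyme had each of its subunits mutagenized by PCR into a library, which was transcribed. One round of in vitro selection, done in triplicate, annealed each library with a biotinylated primer, its partner subunit and triplets, then incubated it frozen at −7 °C before gel excision of extended constructs, streptavidin-bead capture and RT-PCR. Fitness is the logarithm of genotype enrichment relative to wild-type enrichment, based on Illumina sequencing of inputs and outputs and inverse-variance-weighted replicate averages. A base-2 logarithm is used, and genotypes were kept only with ≥10 input reads and ≥1 read per output.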

Variant	polymerase ribozyme fitness (log ratio)
GGAUCUUCUCGAUCUAACAAAAAAGACAAAUCUGACACAAAGCAUGAGAGCAUCUUCGGAUGCAGAGGCCGCAGCUUUCGGUGGCGCGAUAGCGCCAACGUUGUCAACUAUGACACGCAAAACGCGUGCUCCGUUGAAUGGAGUGUAUCAUG [C35A U44A G70C C76U C103G U145G]	≤ -4.2
GGAUCUUCUCGAUCUAACAAAAAAGACAAAUCUGACACAAAGCUUGAGAGCAUCUUCGGAUGCAGAGGCGGCAGCCUUCGGUGGCGCGAUAGCGACAACGUUCUCAGCUAUGACACGCAAAACGCGUGCUCCGUUGAAUGGAUUUUAUCAUG [C35A C95A A107G G143U]	-3.95
GGAUCUUCUCGAUCUAACAAAAAAGACAAAUCUGACACAAAGCUUGAGAGCAUCUUCGGAUGCAUAGGCGGCAGCCUUCGGUCGAGCGAUAGCGCCAACGUUCUCAACUAUGACACGCAAAACACGUGCUCCGUUGAAUGGAGUUUAUCAUG [C35A G65U G83C C85A G124A]	≤ -4.2
GGAUCUUCUCGAUCUAACAAAAAAGACAAAUCUGACACAAAGCUUGAGAGCAACUUCGGAACCGGCGGCGGCAGCCUUCGGUGGCGGGAUAGCGCCAACGUUCUCAACUAUGACACGCAAAACGCGUGCUCCGUUGAAUGGAGUUUAUCAUU [C35A U53A U61A G62C A64G A66C C87G G152U]	≤ -4.2
GGAUCUUCUCGAUCUAACAAAAAAGACAAAUCUGGCACAAAGCUUGCGAGCAUCUUCGGAUGCAGAGGGGGCAGCCGUCGGCGGCGCGAUAGCGCCAACGUUGUCAACUAUGACACGCAAAACGCGUUCGCCGUUGAAUGGAGUUUAUCACG [C35G A47C C69G U77G U82C C103G G128U U130G U151C]	≤ -4.2
GGAUCUUCUCGAUCUAACAAAAAAGACAAAUCUGACACAAAGCUUGAGAGCAUCUUCGGAUGCAGAGGCGGCAGCCUUCGGUGGCGCGAUAGGGCCACUGUUCUCAACUAUGACACGCAAAACGCGUGCUCCGUUGAAUGCAGUUUAUCAUG [C35A C93G A98C C99U G141C]	≤ -4.2
GGAUCUUCUCGAUCUAACAAAAAAGACAAAUCUGACACAAAGCUUGAGAGCAUCUUCGGAUGCAGAGGCGGCAGCCUUCGGUGGCGCGAUAGCGCCAACAUUCUCAACUAUGACACGCAAAACGGGUGCUGCGUUGAAUGGAGUUUAUCAUG [C35A G100A C125G C131G]	≤ -4.2
GGAUCUUCUCGAUCUAACAAAAAAGACAAAUCUGACACAAAGCUUGAGAUCAUCUUCGGAUGCAGAGGAGGCAACCUUCGGUGGCGCGAUAGCGCCAACGUUCUCAACUAUGACACGCAAAACGCGUGCUCCGUUGAAUGGAGUUUAUCAUG [C35A G50U C69A G74A]	≤ -4.2
GGAUCUUCUCGAUCUAACAAAAAAGACAAAUCUGGCACAAAGCUUGAGAGCUACUACGGAUGCAGAGGCGGCAGCCUUCGGUGGCGCGAUAGGGCUAACGUUCUGAACUAUGACACGCAAAACGCGUGCUCCGUUGAAUGGAGUUUAUCAUA [C35G A52U U53A U56A C93G C96U C105G G152A]	≤ -4.2
GGAUCUUCUCGAUCUAACAAAAAAGACAAAUCUGACACAAAGCUUGAGAGCAUCUUCGGAUGCAGAGGCGGCAGCCUUCGGUGGCGCGAAAGCGUCAACGUACUCAACUAUGACACGCAAAACGCGUGCUCCGUUGAAUGGAGUUUAUCAUG [C35A U90A C95U U102A]	≤ -4.2
GGAUCUUCUCGAUCUAACAAAAAAGACAAAUCUGACACAAAGCUUGAGAGCAUCUUCGGAUGCAGAGGCGGCAGCCUUCGGUGGCGCGAUAGCGCCAACGUUCUCAAGUAUGACAAGCAAAACGCGUGCUCCGUUGAAUGGUGUUUAUCAUG [C35A C108G C116A A142U]	≤ -4.2
GGAUCUUCUCGAUCUAACAAAAAAGACAAAUCUGACACAAAGCUUGAGAGCAUCUUCGGAUGCAGAGGCGGCAGCCUUCGGUGGCGCGAUAGCGCCAACGUUCUCAACUAUGACACGCAAAACGCAUGCUCCGUUGAAUGGAGUUUAUCAUG [C35A G126A]	-3.51
GGAUCUUCUCGAUCUAACAAAAAAGACAAAUCUGACACAAAGCUUGAGAGCAUCUUCGGAUGCAGAGGCGGCAGCCUUCGGUGGAGCGAUAGCGCCAACGUUCUCAACUAUGACACGCAAAACGCGUGCUCCGUUGAAUGGAGUUUAUCAUG [C35A C85A]	-3.65
GGAUCUUCUCGAUCUAACAAAAAAGACAAAUCUGACACAAAGCUUGAGAGCAUCUUCGGAUGCAGAGGCGGCAGCCUUGGGUGGCGCGAUAGCGCCAACGUUCUCAACUAUGACACGCAAAACGCGUGCUCCGUUGAAUGGAGUUUAUCAAG [C35A C79G U151A]	≤ -4.2
GGAUCUUCUCGAUCUAACAAAAAAGACAAAUCUGGCACCAAGCUUGAGAGCAUCUUCGGAUGCAGAGGCGGCAGCCUUCGGCGGCGCGAUAGCGCCAACGUUCUCAACUAUGACAUGCAAAACGGGUGCUCCAUUGAAUGGAGUUUAUCAUG [C35G A39C U82C C116U C125G G133A]	≤ -4.2
GGAUCUUCUCGAUCUAACAAAAAAGACAAAUCUGACACAAAGCUUGAGAGCAUCUUCGGAAGCAGAGGCGGCAGCCUUCGGUGGCGCGAUAGCGCCAACGUUGCCAACUAUGACAUGCAAAACGCGUGCUCCGUUGAAUGGAGUUUAUCAUG [C35A U61A C103G U104C C116U]	≤ -4.2
GGAUCUUCUCGAUCUAACAAAAAAGACAAAUCUGGCACAAAGCUUGAGAGCAUCUUCGGCUGCAGAGGCGGCAGCCUUCGGUGGCGCGAUAGCGCCAACGUUCUCAACUAUGACACGCAAAACGCGUGCUCCGUUGAAUGGAGUUUAUCAUG [C35G A60C]	-3.99
GGAUCUUCUCGAUCUAACAAAAAAGACAAAUCUGACACAAAGCUUGAGAGCAUCUUCGGAUGCAGAGGCGGCAGCCUUCGGUGGCGCGAUAGCGGCAACGUUCUGGACUAUGACACGCAAAACGCGUGCUCCGUUGAAUGAAGUUUAUCAUG [C35A C95G C105G A106G G141A]	≤ -4.2
GGAUCUUCUCGAUCUAACAAAAAAGACAAAUCUGACACAAAGCUUGAGAGCAUCUUCGGAUGCAGAGGCGGCAGCCUUCGGUGGCGUGAUAGCGCCAACGUUCUCAACUAUGACACGCAAAACGCGUGCUCCGUUGAAUGGAGUUUAUCAUG [C35A C87U]	-4.03

Variant	polymerase ribozyme fitness (log ratio)
GGAUCUUCUCGAUCUAACAAAAAAGACAAAUCUGACACAAAGCAUGAGAGCAUCUUCGGAUGUAGAGGCAGCAGCCUUCCGUGGCGGGAUAGCGCCAACGUUCUCAACUAUGACACGCAAAACGCGUGCUCCGUUGAAUGGAGUUUAUCAUG [C35A U44A C63U G70A G80C C87G]	≤ -4.2
GGAUCUUCUCGAUCUAACAAAAAAGACAAAUCUGACACAAAGCUUGAGAGCAUCUUCGGAUGCAGAGGCGGCAGCCUUCGGUGGCGCGAUAGCGGCAACGUUCUCAACUAUGACACGCAAAACGCGUGCUCCGUUGAAUGGAGUUUAUCAUG [C35A C95G]	-4.1
GGAUCUUCUCGAUCUAACAAAAAAGACAAAUCUGACACAAAGCUUGAGAGCAUCUUCGGAUGCAGAUGCGGCAGCCUUCGGUGGCGCGAUAGCUCCAACGUUCUCAACUAUGACACGCAAAACGCGUGCUCCGUUGAAUGGAGUUUAUCAUG [C35A G67U G94U]	≤ -4.2
GGAUCUUCUCGAUCUAACAAAAAAGACAAAUCUGACACAAAGCUUGAGAGCAUCUUCGGAUGCAGAGGCGGCAGCCUUCGGUGGCGCGAUAGCGCCAACGUUCUCAACUAUGACACGCAAAACGCGUGCUCCGUUGAAUGGAGUUAAUCAUG [C35A U146A]	-3.32
GGAUCUUCUCGAUCUAACAAAAAAGACAAAUCUGACACAAAGCUUGAGAGCAUCUUCGGAUGCAGAGGCGGCAGCCUUCGGUGGCGCGAUAGCGCCAACGCUCUCAACUAUGACACGCAAAACGCGUGCUCCGUUGAAUGGAGUUUAUCAUG [C35A U101C]	-3.87
GGAUCUUCUCGAUCUAACAAAAAAGACAAAUCUGACACAAAGCUUGAGAGCAUCUUCGGAUGCAGAGGCGGCAGCCUUCGGUGGCGCGAUAGCGCCAACGUUCUCAACUAUGACACGCAAAACGCGUGCUCCGUUGAAUGGAGGUUAUCAAG [C35A U144G U151A]	≤ -4.2
GGAUCUUCUCGAUCUAACAAAAAAGACAAAUCUGACACAAAGCUUGAGAGCAUCUUCGGAUGCAGAGGCGGCAGCCCUCGGUAGCGCGAUAGCGCCAACGUUCUCCACUAUGACACGCAAAACGCAUGCUCCGGUGAAUGGAGUUUAUCAUG [C35A U77C G83A A106C G126A U134G]	≤ -4.2
GGAUCUUCUCGAUCUAACAAAAAAGACAAAUCUGACACAAAGCUUGAGAGCAUCUUCGGAUGCAGAGGCGGCAGCCUUCGGUGGCGCGAAAGCGCCAACGUUCUCAACUACGACACGCAAAACGCGUGCUCCGUUGCAUGGAGUUUAUCAUG [C35A U90A U111C A137C]	≤ -4.2
GGAUCUUCUCGAUCUAACAAAAAAGACAAAUCUGACACAAAGCUUGAGAGCAUCUCCGGAUGCAGAGGCGGCAGCCUUCGGAGGCGCGAUAGCGCCAACGUUCUCAACUAUGACACGCAAAACGCGUGCUCCGUUGAAUGGAGUUUAUCAUG [C35A U56C U82A]	-3.49
GGAUCUUCUCGAUCUAACAAAAAAGACAAAUCUGACACAAAGCUUGAGAGCAUCUUCGGAUGCAGAGGCGGCAACCUUCGGUGGCGCGAUAGCGCCAACGUUCUCAACUAUGACACGCAAAACGCGUGCUCCGUUGAAUGGAGGUUAUGAUG [C35A G74A U144G C149G]	≤ -4.2
GGAUCUUCUCGAUCUAACAAAAAAGACAAAUCUGACACAAAGCUUGAGAGCAUCUUCGGAUGCAGAGGCGGCAGCCUUCGUUGGCGCGAUAGCGCCUUCGUUCUCAACUAUGACACGCAAAACGCGUGCUCCGUUGAAUGGAGUUUAUCAUG [C35A G81U A97U A98U]	-3.76
GGAUCUUCUCGAUCUAACAAAAAAGACAAAUCUGACACAAAGCUUGAGAGCAUCUUCGGAUGCAGAGGCGGCAGCCUUCGGUUGCGCGAUAGCGCCAACGUUCUCAACUAUGACACGCAAAACGCGUGCUCCGUUGAAUGGAGUUUAUCAUG [C35A G83U]	≤ -4.2
GGAUCUUCUCGAUCUAACAAAAAAGACAAAUCUGACACAAAGCUUGAGAGCAUCUUCGGAUGCAGAGGCGGCAGCCUUCGGUCGCGCGAUAGCGCCAACGUUCUCAACUAUGACACGCAAAACGCGUGCUCCGUUGAAUGGAGUUUAUCAUG [C35A G83C]	-3.93
GGAUCUUCUCGAUCUAACAAAAAAGACAAAUCUGACACAAAGCUUGAGAGCAUCUUCGGAUGCAGAGGCGGCAGCCUUCGGUGGCGCGAUAGCCCCAACGUUCUCAACUAUGACACGCAAAACGCGUGCUCCGUUGAAUGGAGUUUAUCAUG [C35A G94C]	-2.74
GGAUCUUCUCGAUCUAACAAAAAAGACAAAUCUGACACAAAGCUUGAGAGCAUCUUCGGAUGCAGAGGCGGCAGCCUUCGGUGGCGCGAUAGCACCAACGUUCUCAACUAUGACACGCAAAACGCGUGCUCCGUUGAAUGGAGUUUAUCAUG [C35A G94A]	-3.56
GGAUCUUCUCGAUCUAACAAAAAAGACAAAUCUGACACAAAGCUUGAGAGCAUCUUCUGAUGCAGAGGCGGCAGCCUUCGGUGGCGCGAUAGCGCCAACGUUCUCAACUAUGACACGCAAAACGCGUGCUCCGUUGAAUGGAGUUUAUCAUG [C35A G58U]	-2.81
GGAUCUUCUCGAUCUAACAAAAAAGACAAAUCUGACACAAAGCUUGAGAGCAUCUUCGGAUGCAGAGGCAGCAGCCUUCGGUGGCGCGGUAACGCCAACGUUCUCAACUAUGACACGCAAAACGCGUGCUCCGUUGAAUGGAGUUUAUCAUG [C35A G70A A89G G92A]	≤ -4.2
GGAUCUUCUCGAUCUAACAAAAAAGACAAAUCUGACACAAAUCUUGAAAGCAUCUUCGGAUGCAGAGACGGCAGCCUUCGGUGGCGCGAUAGCGCCAACGUUCUCCACUAUGACAUGCAUAACGCGUGCUCCGUUGAAUGAAGUUUAUCAUG [C35A G42U G48A G68A A106C C116U A120U G141A]	≤ -4.2
GGAUCUUCUCGAUCUAACAAAAAAGACAAAUCUGACACAAAGCUUGAGAGCAUCUUCGGAUGCAUAGGCGGCAGCCUUCGGUAGCGCGAUAGCGCCAACGUUCUCAACUAUGACACGCAAAACGCGUGCUCCGUUGAAUUGAGUUUAUCAUG [C35A G65U G83A G140U]	≤ -4.2
